Molecular target: CdiA-CT_(PA0041), C-terminal (CT) toxin domain of CdiA_(PA0041) of P. aeruginosa PAO1 (P. aeruginosa PAO1)

“CdiI_(PA2462)-His6, immunity protein of the cdi_(PA2462) locus of P. aeruginosa PAO1 (natural protein)” was tested, and the decrease of CFU/ml of E. coli co-producing CdiA-CT (PA0041) (1% arabinose) with the non-cognate CdiI (PA2462)-His6 (1 mM IPTG), after 6 h of culture: no protection was 6 logs.

Source: paper PMC4725963
